Patent publication US8987424B2, “CA6 antigen-specific cytotoxic conjugate and methods of using the same” (ImmunoGen, Inc., priority 2003, dated 2015)

Columns and labels:
[1] = tested on: TOV-21G tumor xenografts; assay: Subcutaneous TOV-21G xenograft efficacy study; format: in vivo, SCID mice
Procedure: (§1) OVCAR5 (FIG. 26A and FIG. 26B), TOV-21 G (FIG. 26C and FIG. 26D), HPAC (FIG. 26E and FIG. 26F), and HeLa (FIG. 26G and FIG. 26H) cells were inoculated on day 0, and immunoconjugate treatments were given on day 6 and 13. PBS control animals were euthanized once tumor volumes exceeded 1000 mm^3. The conjugate was given at a dose of 600 μg/kg DM1, corresponding to an antibody concentration 27.7 mg/kg. Tumor volume (FIG. 26A, FIG. 26C, FIG. 26E, and FIG. 26G) and body weight (FIG. 26B, FIG. 26D, FIG. 26F, and FIG. 26H) of the mice were monitored during the course of the study.
(§2) muDS6-DM 1 activity was further tested on a panel of subcutaneous xenograft models (see FIG. 26). […] OVCAR5 cells and TOV-21 G are ovarian tumor cell lines; HPAC is a pancreatic tumor cell line; HeLa is a cervical tumor cell line. OVCAR5 and TOV-21G cells have low surface CA6 expression; HeLa cells have an intermediate level of surface CA6 expression; HPAC cells have a high CA6 density of surface expression. TOV-21G and HPAC cells are maytansine sensitive; OVCAR5 and HeLa cells are 2-7-fold less maytansine sensitive.
The 4 cell-lines were grown in vitro, collected, and 1×10^7 cells in a 100 μL of serum free medium were injected under the right shoulder of each mouse (6 mice per model) and allowed to grow for 6 days to an average tumor volume of 57.6±6.7 and 90.2±13.4 mm^3 for the test and control groups respectively of OVCAR5, 147.1±29.6 and 176.2±18.9 mm^3 for the test and control groups respectively of HPAC, 194.3±37.2 and 201.7±71.7 mm^3 for the test and control groups respectively of HeLa, and 96.6±22.8 and 155.6±13.4 mm^3 for the test and control groups respectively of TOV-21G, at which time drug treatment was initiated. For each model three control mice were treated with two weekly doses of PBS and three test mice were treated with two weekly doses of conjugate (600 μg/kg DM1) intravenously. Toxic responses were monitored daily during the treatment and tumor volumes and body weights were monitored throughout the study. […]

[2] = tested on: OVCAR5 tumor xenografts; assay: Subcutaneous OVCAR5 xenograft efficacy study; format: in vivo, SCID mice
Procedure: as §1, §2
The 4 cell-lines were grown in vitro, collected, and 1×10^7 cells in a 100 μL of serum free medium were injected under the right shoulder of each mouse (6 mice per model) and allowed to grow for 6 days to an average tumor volume of 57.6±6.7 and 90.2±13.4 mm^3 for the test and control groups respectively of OVCAR5, 147.1±29.6 and 176.2±18.9 mm^3 for the test and control groups respectively of HPAC, 194.3±37.2 and 201.7±71.7 mm^3 for the test and control groups respectively of HeLa, and 96.6±22.8 and 155.6±13.4 mm^3 for the test and control groups respectively of TOV-21G, at which time drug treatment was initiated. For each model three control mice were treated with two weekly doses of PBS and three test mice were treated with two weekly doses of conjugate (600 μg/kg DM1) intravenously. Toxic responses were monitored daily during the treatment and tumor volumes and body weights were monitored throughout the study. […] The HeLa model had about a 3 week lag period before beginning exponential growth. […] For the TOV-21 G, HPAC, and HeLa models the mice remain tumor-free at day 61. In the OVCAR5 model tumors recurred at about day 45 after tumor inoculation. Thus, muDS6-DM1 treatment in this model results in a tumor growth delay of approximately 34 days. The growth delay is significant as OVCAR5 cells are less maytansine-sensitive and have low CA6 epitope expression. In models where either the CA6 epitope density is higher or the model has greater maytansine sensitivity, the tumor regression is more robust. It is important to note that only 2 doses were administered. […] It is likely that cures could be achieved with additional or higher conjugate doses.

[3] = tested on: BxPC-3 cells; assay: Flow cytometry binding assay; set-up: species or system human
Procedure: (§3) Flow cytometric analysis was used to localize the DS6 epitope, CA6, to the cell surface. Human cell lines were obtained from the American Type Culture Collection (ATCC) with the exception of OVCAR5 (Kearse et al., Int. J. Cancer 88(6):866-872 (2000)), OVCAR8 and IGROV1 cells (M. Seiden, Massachusetts General Hospital). All cells were grown in RPMI 1640 supplemented with 4 mM L-glutamine, 50 U/ml penicillin, 50 μg/ml streptomycin (Cambrex Bio Science, Rockland, Me.) and 10% v/v fetal bovine serum (Atlas Biologicals, Fort Collins, Colo.), referred hereafter as culture media. Cells were maintained in a 37° C., 5% CO2 humidified incubator.
(§4) Cells ([…]) were incubated, on ice for 3-4 h, with serially diluted concentrations of the DS6 antibody prepared in FACS buffer (2% goat serum, RPMI) into 96-well plates. The cells were spun down in a table top centrifuge at 1500 rpm for 5 min at 4° C. After removing the media, the wells were then refilled with 150 μl of FACS buffer. The wash step was then repeated. FITC-labeled goat anti-mouse IgG (Jackson Immunoresearch) was diluted 1:100 to FACS buffer and incubated with the cells for 1 h on ice. The plate was covered in foil to prevent photobleaching of the signal. After two washes, the cells were fixed with 1% formaldehyde and analyzed on a flow cytometer.

[4] = tested on: PC-3 cells; assay: Flow cytometry binding assay; set-up: species or system human
Procedure: as §3, §4

[5] = tested on: KLE cells; assay: Flow cytometry binding assay; set-up: species or system human
Procedure: as §3, §4

[6] = tested on: Colo205 cells; assay: Flow cytometry binding assay; set-up: species or system human; settings: Colo205, antigen negative cell line
Procedure: as §3, §4

[7] = tested on: T-47D cells; assay: Flow cytometry binding assay; set-up: species or system human
Procedure: as §3, §4

[8] = tested on: SK-OV-3 cells; assay: Flow cytometry binding assay; set-up: species or system human
Procedure: as §3, §4

[9] = tested on: Hs766T cells; assay: Flow cytometry binding assay; set-up: species or system human
Procedure: as §3, §4

[10] = tested on: BT-483 cells; assay: Flow cytometry binding assay; set-up: species or system human
Procedure: as §3, §4

[11] = tested on: MDA-MB-231 cells; assay: Flow cytometry binding assay; set-up: species or system human
Procedure: as §3, §4

[12] = tested on: T98G cells; assay: Flow cytometry binding assay; set-up: species or system human
Procedure: as §3, §4

[13] = tested on: MDA-MB-157 cells; assay: Flow cytometry binding assay; set-up: species or system human
Procedure: as §3, §4

[14] = tested on: MDA-MB-468 cells; assay: Flow cytometry binding assay; set-up: species or system human
Procedure: as §3, §4

[15] = tested on: SW1990 cells; assay: Flow cytometry binding assay; set-up: species or system human
Procedure: as §3, §4

[16] = tested on: BT-20 cells; assay: Flow cytometry binding assay; set-up: species or system human
Procedure: as §3, §4

[17] = 600 μg/kg DM1, two weekly doses
[18] = 600 μg/kg DM1 i.v., two weekly doses

B1: DS6-DM1: muDS6 antibody modified with SPP and conjugated to the maytansinoid DM1 (conjugate)
VH: QAYLQQSGAELVRSGASVKMSCKASGYTFTSYNMHWVKQTPGQGLEWIGYIYPGNGATNYNQKFKGKATLTADPSSSTAYMQISSLTSEDSAVYFCARGDSVPFAYWGQGTLVTVSA
VL: QIVLTQSPAIMSASPGEKVTITCSAHSSVSFMHWFQQKPGTSPKLWIYSTSSLASGVPARFGGSGSGTSYSLTISRMEAEDAATYYCQQRSSFPLTFGAGTKLELKR
- body weight [1, 17]: no weight loss was observed
- tumor status at day 61 [1, 17]: tumor-free
- tumor regression [1, 18]: complete tumor regression in all mice
- body weight [2, 17]: no weight loss was observed
- day of tumor recurrence after tumor inoculation [2, 17]: ~45 days
- tumor growth delay [2, 17]: approximately 34 days
- tumor regression [2, 18]: complete tumor regression in all mice

B2: DS6: murine anti-CA6 monoclonal antibody DS6 (ATCC deposit number PTA-4449) (antibody, V domains shown)
VH: B1 VH
VL: B1 VL
- MMF (average maximum relative mean fluorescence) [3]: 79.99
- MMF (average maximum relative mean fluorescence) [4]: 24.81
- MMF (maximum mean relative fluorescence) [5]: 27.48
- antigen specific binding [6]: no antigen specific binding
- MMF (average maximum relative mean fluorescence) [7]: 559.58
- antigen specific binding ([8]; SK-OV-3, antigen negative cell line): no antigen specific binding
- MMF (maximum mean relative fluorescence) ([8]; SKOV3): 17.53
- MMF (average maximum relative mean fluorescence) [9]: 182.90
- MMF (average maximum relative mean fluorescence) [10]: 1911.00
- MMF (average maximum relative mean fluorescence) [11]: 31.85
- MMF (average maximum relative mean fluorescence) [12]: 35.94
- Kd ([12]; read-out: Apparent Kd): 0.178 nM
- MMF (average maximum relative mean fluorescence) [13]: 8.635
- MMF (average maximum relative mean fluorescence) [14]: 71.58
- MMF (average maximum relative mean fluorescence) [15]: 36.17
- MMF (average maximum relative mean fluorescence) [16]: 232.20
